# Results taken from patent US9018171B2, “Uses of an immunomodulatory protein (GMI) from Ganoderma microsporum” (Mycomagic Biotechnology Co., Ltd., priority 2010, dated 2015).
# Where two headings read alike, the source gives them in different places.
# Key:
# NCI/ADR-RES = assay: NCI60 in vitro screening, Ovarian Cancer; type: cell-based
# LOX IMVI = assay: NCI60 in vitro screening, Melanoma; type: cell-based; settings: one dose
# A549 = assay: MTT assay, drug sensitivity; type: cell-based, human; settings: A549, 48 h, MTT
# Experimental: (§1) A549 cell line and resistant A549 cell sublines (A549/D16, A549/D32 and A549/V16) (5000 cells/well of 96-well plate) were treated with increased doses concentrations (μM) of GMI from Ganoderma microsporum, docetaxel, vincristine and doxorubicin for 48 h, respectively. Cell viability was measured by MTT assay and the results are presented as the calculated cell growth inhibitory ratio. Experiments were repeated three times.
# A549/V16 = assay: MTT assay, drug sensitivity; type: cell-based, human; settings: A549/V16, 48 h, MTT
# Experimental: as §1
# A549/D16 = assay: MTT assay, drug sensitivity; type: cell-based, human; settings: A549/D16, 48 h, MTT
# Experimental: as §1
# NCI-H23 = type: cell-based
# M14 = assay: NCI60 in vitro screening, Melanoma; type: cell-based
# NCI-H522 = type: cell-based
# MCF7 = assay: NCI60 in vitro screening, Breast Cancer; type: cell-based
# SF-295 = assay: NCI60 in vitro screening, CNS Cancer; type: cell-based
# MDA-MB-435 = assay: NCI60 in vitro screening, Melanoma; type: cell-based
# NCI60 tumour cell lines = assay: NCI60 in vitro screening, one dose, whole panel; type: cell-based; settings: mean over all cell lines
# HOP-62 = type: cell-based
# SK-MEL-2 = assay: NCI60 in vitro screening, Melanoma; type: cell-based; settings: SK-MEL-2, one dose
# MALME-3M = assay: NCI60 in vitro screening, Melanoma; type: cell-based
# HOP-92 = type: cell-based; settings: HOP-92, one dose
# SF-539 = assay: NCI60 in vitro screening, CNS Cancer; type: cell-based
# EGFR = assay: Western blotting, EGF-induced phosphorylation; type: cell-based, human; settings: A549 cells, pretreated 8 h, EGF 10 minutes
# Experimental: (§2) A549 cells (5×10^5 cells/60 mm) were pretreated with various concentrations of GMI (4, 16 μg/ml) or AG1478 (EGFR inhibitors) for 8 hours prior to incubation for 10 minutes with EGF (as indicated). Cell lysates were subject to immunoblotting with phospho-specific EGFR (Y1068) (A and B), anti-phospho-AKT (A), anti-AKT (A), anti-phospho-GSK3β (A) or anti-phospho-STAT3 antibodies (B). Protein loading was determined by Western blotting against β-actin (A and B).
# (§3) Total cell lysates were prepared in RIPA buffer (100 μl in 60 mm in dish). Fifty μg of lysate were loaded onto an 8% polyacrylamide gel and analyzed by SDS gel electrophoresis. After transfer to PVDF (Amersham), blots were blocked with 5% skim milk in TBS (10 mM Tris-CL pH7.5, 150 mM NaCl) containing 0.2% Tween-20. Blots were probed with antibodies (at their recommended dilutions) in 5% skim milk in TBS overnight at 4° C. Following detection with the appropriate horseradish-peroxidase conjugated secondary antibody (Cell Signaling), blots were developed by enhanced chemiluminescence according to the manufacturer's directions (Perkin Elmer Life Sciences). All experiments were performed in duplicate.
# (§4) To assess whether GMI mediates and/or inhibits phosphorylation of Akt and Stat3, the invention investigated the effect of GMI on the phosphorylation status of Akt and Stat3 in A549 cells treated with various concentrations of GMI for 8 h.
# Stat3 = assay: Western blotting, EGF-induced phosphorylation; type: cell-based, human; settings: A549 cells, pretreated 8 h, EGF 10 minutes
# Experimental: as §2, §3, §4
# Akt = assay: Western blotting, EGF-induced phosphorylation; type: cell-based, human; settings: A549 cells, pretreated 8 h, EGF 10 minutes
# Experimental: as §2, §3, §4
molecule,measurement,setting,value
"GMI: immunomodulatory protein from Ganoderma microsporum, amino acid sequence SEQ ID NO: 3, manufactured by Mycomagic Biotechnology Co., Ltd. (protein, listed as Ganoderma microsporum) MSDTALIFTLAWNVKQLAFDYTPNWGRGRPSSFIDTVTFPTVLTDKAYTYRVVVSGKDLGVRPSYAVESDGSQKINFLEYNSGYGIADTNTIQVYVIDPDTGNNFIVAQWN",TGI,NCI/ADR-RES,>1.25E2
same,Percent Growth,NCI/ADR-RES; Log10 Concentration 0.1,105%
same,Percent Growth,NCI/ADR-RES; Log10 Concentration 1.1,81%
same,Percent Growth,NCI/ADR-RES; Log10 Concentration 2.1,19%
same,Percent Growth,NCI/ADR-RES; Log10 Concentration −0.9,100%
same,Percent Growth,NCI/ADR-RES; Log10 Concentration −1.9,102%
same,GI50,NCI/ADR-RES; in µg/mL,3.94E1
same,Growth Percent,LOX IMVI,67.70%
same,IC50 ± SD,A549,15.73 ± 0.42 µg/mL
same,IC50 ± SD,A549/V16,13.10 ± 0.17 µg/mL
same,IC50 ± SD,A549/D16,11.37 ± 0.55 µg/mL
same,TGI,NCI-H23; NCI-H23,>1.25E2
same,Percent Growth,"NCI-H23; NCI-H23, Log10 Concentration 0.1",106%
same,Percent Growth,"NCI-H23; NCI-H23, Log10 Concentration 1.1",89%
same,Percent Growth,"NCI-H23; NCI-H23, Log10 Concentration 2.1",66%
same,Percent Growth,"NCI-H23; NCI-H23, Log10 Concentration −0.9",101%
same,Percent Growth,"NCI-H23; NCI-H23, Log10 Concentration −1.9",99%
same,Growth Percent,"NCI-H23; NCI-H23, one dose",91.82%
same,TGI,M14; M14,>1.25E2
same,Percent Growth,"M14; M14, Log10 Concentration 0.1",106%
same,Percent Growth,"M14; M14, Log10 Concentration 1.1",76%
same,Percent Growth,"M14; M14, Log10 Concentration 2.1",1%
same,Percent Growth,"M14; M14, Log10 Concentration −0.9",96%
same,Percent Growth,"M14; M14, Log10 Concentration −1.9",98%
same,Growth Percent,"M14; M14, one dose",94.87%
same,GI50,"M14; M14, in µg/mL",2.78E1
same,TGI,NCI-H522; NCI-H522,1.25E2
same,Percent Growth,"NCI-H522; NCI-H522, Log10 Concentration 0.1",105%
same,Percent Growth,"NCI-H522; NCI-H522, Log10 Concentration 1.1",98%
same,Percent Growth,"NCI-H522; NCI-H522, Log10 Concentration 2.1",53%
same,Percent Growth,"NCI-H522; NCI-H522, Log10 Concentration −0.9",100%
same,Percent Growth,"NCI-H522; NCI-H522, Log10 Concentration −1.9",95%
same,Growth Percent,"NCI-H522; NCI-H522, one dose",125.90%
same,TGI,MCF7; MCF7,>1.25E2
same,Percent Growth,"MCF7; MCF7, Log10 Concentration 0.1",93%
same,Percent Growth,"MCF7; MCF7, Log10 Concentration 1.1",49%
same,Percent Growth,"MCF7; MCF7, Log10 Concentration 2.1",23%
same,Percent Growth,"MCF7; MCF7, Log10 Concentration −0.9",104%
same,Percent Growth,"MCF7; MCF7, Log10 Concentration −1.9",100%
same,Growth Percent,"MCF7; MCF7, one dose",42.68%
same,GI50,"MCF7; MCF7, in µg/mL",1.15E1
same,TGI,SF-295; SF-295,>1.25E2
same,Percent Growth,"SF-295; SF-295, Log10 Concentration 0.1",101%
same,Percent Growth,"SF-295; SF-295, Log10 Concentration 1.1",93%
same,Percent Growth,"SF-295; SF-295, Log10 Concentration 2.1",22%
same,Percent Growth,"SF-295; SF-295, Log10 Concentration −0.9",100%
same,Percent Growth,"SF-295; SF-295, Log10 Concentration −1.9",103%
same,Growth Percent,"SF-295; SF-295, one dose",70.58%
same,GI50,"SF-295; SF-295, in µg/mL",5.07E1
same,TGI,MDA-MB-435; MDA-MB-435,>1.25E2
same,Percent Growth,"MDA-MB-435; MDA-MB-435, Log10 Concentration 0.1",91%
same,Percent Growth,"MDA-MB-435; MDA-MB-435, Log10 Concentration 1.1",85%
same,Percent Growth,"MDA-MB-435; MDA-MB-435, Log10 Concentration 2.1",3%
same,Percent Growth,"MDA-MB-435; MDA-MB-435, Log10 Concentration −0.9",96%
same,Percent Growth,"MDA-MB-435; MDA-MB-435, Log10 Concentration −1.9",101%
same,Growth Percent,"MDA-MB-435; MDA-MB-435, one dose",79.29%
same,GI50,"MDA-MB-435; MDA-MB-435, in µg/mL",3.34E1
same,"Growth Percent, Mean",NCI60 tumour cell lines,64.66%
same,TGI,HOP-62; HOP-62,5.99E1
same,Percent Growth,"HOP-62; HOP-62, Log10 Concentration 0.1",102%
same,Percent Growth,"HOP-62; HOP-62, Log10 Concentration 1.1",73%
same,Percent Growth,"HOP-62; HOP-62, Log10 Concentration 2.1",−34%
same,Percent Growth,"HOP-62; HOP-62, Log10 Concentration −0.9",102%
same,Percent Growth,"HOP-62; HOP-62, Log10 Concentration −1.9",104%
same,Growth Percent,"HOP-62; HOP-62, one dose",53.89%
same,GI50,"HOP-62; HOP-62, in µg/mL",2.03E1
same,Growth Percent,SK-MEL-2,105.92%
same,TGI,MALME-3M,>1.25E2
same,Percent Growth,MALME-3M; Log10 Concentration 0.1,118%
same,Percent Growth,MALME-3M; Log10 Concentration 1.1,114%
same,Percent Growth,MALME-3M; Log10 Concentration 2.1,74%
same,Percent Growth,MALME-3M; Log10 Concentration −0.9,102%
same,Percent Growth,MALME-3M; Log10 Concentration −1.9,100%
same,Growth Percent,MALME-3M; one dose,114.17%
same,Growth Percent,HOP-92,22.29%
same,TGI,SF-539; SF-539,6.02E1
same,Percent Growth,"SF-539; SF-539, Log10 Concentration 0.1",102%
same,Percent Growth,"SF-539; SF-539, Log10 Concentration 1.1",80%
same,Percent Growth,"SF-539; SF-539, Log10 Concentration 2.1",−37%
same,Percent Growth,"SF-539; SF-539, Log10 Concentration −0.9",111%
same,Percent Growth,"SF-539; SF-539, Log10 Concentration −1.9",108%
same,Growth Percent,"SF-539; SF-539, one dose",48.19%
same,GI50,"SF-539; SF-539, in µg/mL",2.26E1
same,EGF-induced activation (phosphorylation) of EGFR,EGFR,significantly inhibits
same,EGF-induced activation (phosphorylation) of Stat3,Stat3,little effect
same,EGF-induced activation (phosphorylation) of Akt,Akt,significantly inhibits
